# Laboratory results reported in patent US20170204176A1 (MacroGenics, published 2017).
# Experiments:
# [1] = target: T1, DR5 on DR5-expressing CHO cells (UniProt O14763 56-440, limits assumed); experiment: FACS on DR5-expressing CHO cells (Log MFI)
# T1 construct: whole, on cells; also called DR5-expressing CHO target cells
# Excerpt: The ability of Tri-Specific Binding Molecules of the present invention to bind to target cells was investigated.
# [2] = target: T2, EphA2 on EphA2-expressing CHO cells (UniProt P29317 24-976, limits assumed); experiment: FACS on EphA2-expressing CHO cells (Log MFI)
# T2 construct: whole, on cells; EphA2 mAb 1 is called an anti-human EphA2 antibody; also called EphA2-expressing CHO target cells
binder,measurement,setting,value
"EphA2 mAb 1×CD3 mAb 2×DR5 mAb 1 (other, a Fab-type heavy chain with hole Fc; a kappa light chain) chain 1: DIQMTQTTSSLSASLGDRITISCRASQDISNYLNWYQQKPDGTVKLLIYYTSRLHSGVPSRFSGSGSGTDYSLTISNLEQEDIATYFCQQGYTLYTFGGGTKLEIKGGGSGGGGEVQLVESGGGLVQPGGSLRLSCAASGFTFSTYAMNWVRQAPGKGLEWVGRIRSKYNNYATYYADSVKGRFTISRDDSKNSLYLQMNSLKTEDTAVYYCVRHGNFGNSYVSWFAYWGQGTLVTVSSGGCGGGEVAALEKEVAALEKEVAALEKEVAALEKGGGDKTHTCPPCPAPEAAGGPSVFLFPPKPKDTLMISRTPEVTCVVVDVSHEDPEVKFNWYVDGVEVHNAKTKPREEQYNSTYRVVSVLTVLHQDWLNGKEYKCKVSNKALPAPIEKTISKAKGQPREPQVYTLPPSREEMTKNQVSLWCLVKGFYPSDIAVEWESNGQPENNYKTTPPVLDSDGSFFLYSKLTVDKSRWQQGNVFSCSVMHEALHNHYTQKSLSLSPGK chain 2: QAVVTQEPSLTVSPGGTVTLTCRSSTGAVTTSNYANWVQQKPGQAPRGLIGGTNKRAPWTPARFSGSLLGGKAALTITGAQAEDEADYYCALWYSNLWVFGGGTKLTVLGGGGSGGGGQVQLKESGPGLVAPSQSLSITCTVSGFSLSRYSVHWVRQPPGKGLEWLGMIWGGGSTDYNSALKSRLSISKDNSKSQVFLKMNSLQTDDTAMYYCARKHGNYYTMDYWGQGTSVTVSSGGCGGGKVAALKEKVAALKEKVAALKEKVAALKE heavy: EVKFLESGGGLVQPGGSLKLSCVASGFDFSRYWMSWVRQAPGKGLEWIGEINPDSNTINYTPSLKDKFIISRDNAKNTLYLQMTKVRSEDTALYYCTRRAYYGNPAWFAYWGQGTLVTVSSASTKGPSVFPLAPSSKSTSGGTAALGCLVKDYFPEPVTVSWNSGALTSGVHTFPAVLQSSGLYSLSSVVTVPSSSLGTQTYICNVNHKPSNTKVDKRVEPKSCDKTHTCPPCPAPEAAGGPSVFLFPPKPKDTLMISRTPEVTCVVVDVSHEDPEVKFNWYVDGVEVHNAKTKPREEQYNSTYRVVSVLTVLHQDWLNGKEYKCKVSNKALPAPIEKTISKAKGQPREPQVYTLPPSREEMTKNQVSLSCAVKGFYPSDIAVEWESNGQPENNYKTTPPVLDSDGSFFLVSKLTVDKSRWQQGNVFSCSVMHEALHNRYTQKSLSLSPGK light: DIVLTQSPASLAVSLGQRATISCRASKSVSSSGYSYMHWYQQKPGQPPKVLIFLSSNLDSGVPARFSGSGSGTDFTLNIHPVEDGDAATYYCQHSRDLPPTFGGGTKLEIKRTVAAPSVFIFPPSDEQLKSGTASVVCLLNNFYPREAKVQWKVDNALQSGNSQESVTEQDSKDSTYSLSSTLTLSKADYEKHKVYACEVTHQGLSSPVTKSFNRGEC",EC50 (read off the curve),[1],~0.9 nM
same,EC50 (read off the curve),[2],~0.7 nM
